Source: patent EP2061494B1 (Universita' Degli Studi di Torino, dated 2012)

Biological target: Src kinase (endogenous protein of MCF7 cells) (human, UniProt P12931 2-536)
Experiment: cell-based or functional assay

Src activity induced by adhesion to fibronectin (in vitro kinase assay) after shRNA down-regulation of p140Cap: 5 fold
B1: p140Cap (endogenous protein of MCF7 human breast carcinoma cell extracts) (other, UniProt Q9C0H9 1-1183, looked up)
chain: MGNAPSQDPERSSPPMLSADDAEYPREYRTLGGGGGGGSGGRRFSNVGLVHTSERRHTVIAAQSLEALSGLQKADADRKRDAFMDHLKSKYPQHALALRGQQDRMREQPNYWSFKTRSSRHTQGAQPGLADQAAKLSYASAESLETMSEAELPLGFSRMNRFRQSLPLSRSASQTKLRSPGVLFLQFGEETRRVHITHEVSSLDTLHALIAHMFPQKLTMGMLKSPNTAILIKDEARNVFYELEDVRDIQDRSIIKIYRKEPLYAAFPGSHLTNGDLRREMVYASRESSPTRRLNNLSPAPHLASGSPPPGLPSGLPSGLQSGSPSRSRLSYAGGRPPSYAGSPVHHAAERLGGAPAAQGVSPSPSAILERRDVKPDEDLASKAGGMVLVKGEGLYADPYGLLHEGRLSLAAAAGDPFAYPGAGGLYKRGSVRSLSTYSAAALQSDLEDSLYKAAGGGGPLYGDGYGFRLPPSSPQKLADVAAPPGGPPPPHSPYSGPPSRGSPVRQSFRKDSGSSSVFAESPGGKTRSAGSASTAGAPPSELFPGPGERSLVGFGPPVPAKDTETRERMEAMEKQIASLTGLVQSALLRGSEPETPSEKIEGSNGAATPSAPCGSGGRSSGATPVSGPPPPSASSTPAGQPTAVSRLQMQLHLRGLQNSASDLRGQLQQLRKLQLQNQESVRALLKRTEAELSMRVSEAARRQEDPLQRQRTLVEEERLRYLNDEELITQQLNDLEKSVEKIQRDVSHNHRLVPGPELEEKALVLKQLGETLTELKAHFPGLQSKMRVVLRVEVEAVKFLKEEPQRLDGLLKRCRGVTDTLAQIRRQVDEGVWPPPNNLLSQSPKKVTAETDFNKSVDFEMPPPSPPLNLHELSGPAEGASLTPKGGNPTKGLDTPGKRSVDKAVSVEAAERDWEEKRAALTQYSAKDINRLLEETQAELLKAIPDLDCASKAHPGPAPTPDHKPPKAPHGQKAAPRTEPSGRRGSDELTVPRYRTEKPSKSPPPPPPRRSFPSSHGLTTTRTGEVVVTSKKDSAFIKKAESEELEVQKPQVKLRRAVSEVARPASTPPIMASAIKDEDDEDRIIAELESGGGSVPPMKVVTPGASRLKAAQGQAGSPDKSKHGKQRAEYMRIQAQQQATKPSKEMSGSNETSSPVSEKPSASRTSIPVLTSFGARNSSISF
